Here are results for 8 molecules from US20080138335A1 (Kyowa Kirin, published 2008).

The experiment concerns the target T1, CD40 expressed on Ramos [ATCC] cells (UniProt P25942 21-277, limits assumed).
T1 construct: whole, on cells; Target of all flow cytometry and CD95 assays; endogenous CD40 on the Ramos cell line
The experiment is described as follows: flow cytometry (FACS) on Ramos cells expressing CD40, R-PE anti-human antibody.

T1 sequence (P25942 21-277 limits assumed): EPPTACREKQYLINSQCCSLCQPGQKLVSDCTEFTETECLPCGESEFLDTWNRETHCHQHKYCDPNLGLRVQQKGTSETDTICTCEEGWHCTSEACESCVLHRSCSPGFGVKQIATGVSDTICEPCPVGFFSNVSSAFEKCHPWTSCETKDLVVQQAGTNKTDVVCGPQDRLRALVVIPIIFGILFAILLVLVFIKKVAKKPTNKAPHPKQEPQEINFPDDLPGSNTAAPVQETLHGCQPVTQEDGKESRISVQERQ

B1: 4D11-G[1133] (antibody, V domains shown)
VH: QLQLQESGPGLLKPSETLSLTCTVSGGSISSPGYYGGWIRQPPGKGLEWIGSIYKSGSTYHNPSLKSRVTISVDTSKNQFSLKLSSVTAADTAVYYCTRPVVRYFGWFDPWGQGTLVTVSS
VL: AIQLTQSPSSLSASVGDRVTITCRASQGISSALAWYQQKPGKAPKLLIYDASNLESGVPSRFSGSGSGTDFTLTISSLQPEDFATYYCQQFNSYPTFGQGTKVEIK
notes: also called IgG[1/1/3/3]; N5KG1133; not shown: human IgG1 heavy chain constant region, CH1 and hinge domains (EU 118-237), from vector N5KG1-Val Lark; human IgG3 heavy chain constant region, CH2 and CH3 domains (EU 238-446), from vector N5KG3
Consider B1, for which the binding result is “binds”.

B2: 4D11-G3[I422V] (antibody, V domains shown)
VH: QLQLQESGPGLLKPSETLSLTCTVSGGSISSPGYYGGWIRQPPGKGLEWIGSIYKSGSTYHNPSLKSRVTISVDTSKNQFSLKLSSVTAADTAVYYCTRPVVRYFGWFDPWGQGTLVTVSS
VL: AIQLTQSPSSLSASVGDRVTITCRASQGISSALAWYQQKPGKAPKLLIYDASNLESGVPSRFSGSGSGTDFTLTISSLQPEDFATYYCQQFNSYPTFGQGTKVEIK
notes: One-amino acid variant of 4D11-G3; also called IgG3[I422V]; N5KG3-1422V; not shown: human IgG3 heavy chain constant region, from vector N5KG3
B2: the binding result is recorded as “binds”.

B3: 4D11-G3[M397V] (antibody, V domains shown)
VH: QLQLQESGPGLLKPSETLSLTCTVSGGSISSPGYYGGWIRQPPGKGLEWIGSIYKSGSTYHNPSLKSRVTISVDTSKNQFSLKLSSVTAADTAVYYCTRPVVRYFGWFDPWGQGTLVTVSS
VL: AIQLTQSPSSLSASVGDRVTITCRASQGISSALAWYQQKPGKAPKLLIYDASNLESGVPSRFSGSGSGTDFTLTISSLQPEDFATYYCQQFNSYPTFGQGTKVEIK
notes: One-amino acid variant of 4D11-G3, made on N5KG3-4D11; also called N5KG3-M397V; 4D11-G[M397V]; not shown: human IgG3 heavy chain constant region, from vector N5KG3-4D11
In the case of B3, the binding result is on record as “binds”.

B4: 4D11-G3[N392K] (antibody, V domains shown)
VH: QLQLQESGPGLLKPSETLSLTCTVSGGSISSPGYYGGWIRQPPGKGLEWIGSIYKSGSTYHNPSLKSRVTISVDTSKNQFSLKLSSVTAADTAVYYCTRPVVRYFGWFDPWGQGTLVTVSS
VL: AIQLTQSPSSLSASVGDRVTITCRASQGISSALAWYQQKPGKAPKLLIYDASNLESGVPSRFSGSGSGTDFTLTISSLQPEDFATYYCQQFNSYPTFGQGTKVEIK
notes: One-amino acid variant of 4D11-G3; also called IgG3[N392K]; N5KG3-N392K; not shown: human IgG3 heavy chain constant region, from vector N5KG3
As to B4, the binding result was “binds”.

B5: 4D11-G3[M358L] (antibody, V domains shown)
VH: QLQLQESGPGLLKPSETLSLTCTVSGGSISSPGYYGGWIRQPPGKGLEWIGSIYKSGSTYHNPSLKSRVTISVDTSKNQFSLKLSSVTAADTAVYYCTRPVVRYFGWFDPWGQGTLVTVSS
VL: AIQLTQSPSSLSASVGDRVTITCRASQGISSALAWYQQKPGKAPKLLIYDASNLESGVPSRFSGSGSGTDFTLTISSLQPEDFATYYCQQFNSYPTFGQGTKVEIK
notes: One-amino acid variant of 4D11-G3; also called IgG3[M358L]; N5KG3-M358L; not shown: human IgG3 heavy chain constant region, from vector N5KG3
Take B5: the binding result is recorded as “binds”.

B6: 4D11-G3[E356D] (antibody, V domains shown)
VH: QLQLQESGPGLLKPSETLSLTCTVSGGSISSPGYYGGWIRQPPGKGLEWIGSIYKSGSTYHNPSLKSRVTISVDTSKNQFSLKLSSVTAADTAVYYCTRPVVRYFGWFDPWGQGTLVTVSS
VL: AIQLTQSPSSLSASVGDRVTITCRASQGISSALAWYQQKPGKAPKLLIYDASNLESGVPSRFSGSGSGTDFTLTISSLQPEDFATYYCQQFNSYPTFGQGTKVEIK
notes: One-amino acid variant of 4D11-G3; also called IgG3-[E356D]; N5KG3-E356D; not shown: human IgG3 heavy chain constant region, from vector N5KG3
Take B6: the binding result is listed as “binds”.

B7: 4D11-G[3331] (antibody, V domains shown)
VH: QLQLQESGPGLLKPSETLSLTCTVSGGSISSPGYYGGWIRQPPGKGLEWIGSIYKSGSTYHNPSLKSRVTISVDTSKNQFSLKLSSVTAADTAVYYCTRPVVRYFGWFDPWGQGTLVTVSS
VL: AIQLTQSPSSLSASVGDRVTITCRASQGISSALAWYQQKPGKAPKLLIYDASNLESGVPSRFSGSGSGTDFTLTISSLQPEDFATYYCQQFNSYPTFGQGTKVEIK
notes: also called IgG[3/3/3/1]; N5KG3331; not shown: human IgG3 heavy chain constant region, CH1, hinge and CH2 domains (EU 118-340), from vector N5KG3; human IgG1 heavy chain constant region, CH3 domain (EU 341-446), from vector N5KG1
In the case of B7, the binding result is listed as “binds”.

B8: 4D11-G[3311] (antibody, V domains shown)
VH: QLQLQESGPGLLKPSETLSLTCTVSGGSISSPGYYGGWIRQPPGKGLEWIGSIYKSGSTYHNPSLKSRVTISVDTSKNQFSLKLSSVTAADTAVYYCTRPVVRYFGWFDPWGQGTLVTVSS
VL: AIQLTQSPSSLSASVGDRVTITCRASQGISSALAWYQQKPGKAPKLLIYDASNLESGVPSRFSGSGSGTDFTLTISSLQPEDFATYYCQQFNSYPTFGQGTKVEIK
notes: also called IgG[3/3/1/1]; N5KG3311; not shown: human IgG3 heavy chain constant region, CH1 and hinge domains (EU 118-237), from vector N5KG3; human IgG1 heavy chain constant region, CH2 and CH3 domains (EU 238-446), from vector N5KG1
On to B8, for which the binding result is on record as “binds”.
